Data set [1] has as its target zebrafish Olig2, mammalian two-hybrid fusion (zebrafish). The experiment in a line: two-hybrid.
Data set [2] concerns the target zebrafish Olig1, mammalian two-hybrid fusion (zebrafish). The experiment in a line: two-hybrid.
For data set [3], the target named is T1, Sox10 (Danio rerio (zebrafish), UniProt Q90XD1 1-485). The experiment in a line: EMSA.
In data set [4] the target is T2, Olig1 (Danio rerio (zebrafish), UniProt Q5QJR2 1-235).
T2 sequence: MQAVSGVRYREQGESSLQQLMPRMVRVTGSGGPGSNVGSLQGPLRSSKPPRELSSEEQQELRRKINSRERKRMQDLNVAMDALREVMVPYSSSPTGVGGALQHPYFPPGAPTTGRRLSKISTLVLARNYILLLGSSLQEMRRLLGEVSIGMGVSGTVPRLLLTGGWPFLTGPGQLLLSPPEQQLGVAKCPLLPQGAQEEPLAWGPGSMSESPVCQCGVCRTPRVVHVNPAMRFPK
Description: EMSA. (In general: In EMSA bound probe runs differently from free probe, usually more slowly.)

Data set [5] concerns the target T1, Sox10. The experiment in a line: competition.
In data set [6] the target is T2, Olig1. Description: competition.

Substitutions are numbered along the chain they refer to.

Turning to “zebrafish Olig1, mammalian two-hybrid fusion (natural protein)”, the fold increase of luciferase activity in data set [1] and in data set [2] was 8 fold in each case.

B1: EbS2 (dsDNA)
DNA 1: CAAGTCGGGGCAGATGTGGACTAGAACAATAGCAGCTCC
DNA 2: GGAGCTGCTATTGTTCTAGTCCACATCTGCCCCGACTTG
Regarding B1, the binding result with Sox10 [3] and in the data set with Olig1 [4] was “binds” in each case.

B2: EbS2mut (dsDNA)
DNA 1: B1 DNA 1 with A25G, A26C, A28G, A29C
DNA 2: B1 DNA 2 with T11G, T12C, T14G, T15C
In the case of B2, in the data set with Sox10 [5], the binding result is given as “no binding”.

B3: EbmutS2 (dsDNA)
DNA 1: CAAGTCGGGGTTGTAATGGACTAGAACAATAGCAGCTCC
DNA 2: GGAGCTGCTATTGTTCTAGTCCATTACAACCCCGACTTG
B3: the binding result in the data set with Olig1 [6] is “no binding”.

These data come from publication PMC6329447.
